Test results reported in patent US5849535A (Genentech, Inc., priority 1996, dated 1998).

T1: hGHbp (Homo sapiens, UniProt P10912)
T1 construct: the extracellular domain of its receptor (hGHbp)
T1 sequence (P10912 19-256 limits assumed): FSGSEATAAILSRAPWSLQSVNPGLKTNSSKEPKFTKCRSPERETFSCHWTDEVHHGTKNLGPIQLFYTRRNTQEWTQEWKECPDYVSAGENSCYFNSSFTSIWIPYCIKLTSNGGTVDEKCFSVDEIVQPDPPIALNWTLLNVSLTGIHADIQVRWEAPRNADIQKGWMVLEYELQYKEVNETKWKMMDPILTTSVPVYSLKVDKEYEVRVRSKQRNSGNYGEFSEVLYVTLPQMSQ


Columns and labels:
IGF-I levels = assay: Single-dose pharmacodynamics, IGF-I levels in Rhesus monkeys; assay type: in vivo; conditions: single dose 1 mg/kg intravenously or subcutaneously; seven-day study
Protocol: The placebo was 0.5 ml formulation buffer administered subcutaneously. IGF-1 levels were determined as in Example XIII.

[1] = In vivo half-life of pegylated wild-type hGH in rats
hGHbp = molecular target: T1, hGHbp; conditions: Lowman et al., J. Biol. Chem.; cited from earlier work

Molecule	longer half-life than the non-pegylated protein [1]	also measured
PEG-4/5-B2036: B2036 preparation containing primarily conjugates with four and five PEG(5000) groups	–	IGF-I levels after single injection (IGF-I levels): reduced at one day after administration, continued to decrease until four days after administration, and remained low throughout the seven-day study
conjugate containing five PEG(5000) groups: pegylated wild-type hGH, approximately 48 kD	~11 fold	–
conjugate containing seven PEG groups: pegylated wild-type hGH, approximately 57 kD	~18 fold	–
wild-type hGH conjugate containing two PEG(5000) groups: pegylated wild-type hGH, approximately 33 kD	~4 fold	–
human placental lactogen (protein, UniProt P0DML2 27-217, looked up) Chorionic somatomammotropin …: VQTVPLSRLFDHAMLQAHRAHQLAIDTYQEFEETYIPKDQKYSFLHDSQTSFCFSDSIPTPSNMEETQQKSNLELLRISLLLIESWLEPVRFLRSMFANNLVYDTSDSDDYHLLKDLEEGIQTLMGRLEDGSRRTGQILKQTYSKFDTNSHNHDALLKNYGLLYCFRKDMDKVETFLRMVQCRSVEGSCGF	–	binds weaker than hGH (hGHbp): ~ 2000 fold
